What was measured:
HeLa Kyoto [1] = test: melting temperature (median over replicates), in situ; higher = more thermally stable
HeLa Kyoto [2] = test: thermal stability score vs G1/S (z-score of summed log2 fold changes over temperatures); higher = more thermally stable than in G1/S
HeLa Kyoto [3] = test: solubility in G1/S (NP-40 vs SDS abundance) (log2 ratio); higher = more soluble; conditions: cell cycle stage: G1/S
HeLa Kyoto [4] = test: solubility change mitosis vs G1/S (difference of NP-40 vs SDS log2 ratios) (log2 ratio difference); higher = more soluble in mitosis
[5] = cell cycle stage: early G1 (4.5 h after nocodazole release)
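Wherever melting temperature (median over replicates), in situ is given: HeLa Kyoto cells synchronized by double thymidine or nocodazole block, proteins quantified by TMT10plex mass spectrometry, three independent biological replicates.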
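Wherever solubility change mitosis vs G1/S (difference of NP-40 vs SDS log2 ratios) is given: synchronized HeLa Kyoto cells (double thymidine block for G1/S, nocodazole release for mitosis), protein amounts in NP-40 versus SDS lysates quantified by mass spectrometry, three biological replicates.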
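Wherever solubility in G1/S (NP-40 vs SDS abundance) is given: HeLa Kyoto cells arrested at G1/S by double thymidine block, proteins quantified by TMT10plex mass spectrometry in mild NP-40 versus SDS extracts, three biological replicates.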
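Wherever thermal stability score vs G1/S (z-score of summed log2 fold changes over temperatures) is given: synchronized HeLa Kyoto cells, proteins quantified by TMT10plex mass spectrometry, three biological replicates, mitosis taken 0.5 h after nocodazole release, G1/S directly after double thymidine block.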

## MEIGTEISRKIRSAIKGKLQELGAYVDEELPDYIMVMVANKKSQDQMTEDLSLFLGNNTIRFTVWLHGVLDKLRSVTTEPSSLKSSDTNIFDSNVPSNKSNFSRGDERRHEAAVPPLAIPSARPEKRDSRVSTSSQESKTTNVRQTYDDGAATRLMSTVKPLREPAPSEDVIDIKPEPDDLIDEDLNFVQENPLSQKKPTVTLTYGSSRPSIEIYRPPASRNADSGVHLNRLQFQQQQNSIHAAKQLDMQSSWVYETGRLCEPEVLNSLEETYSPFFRNNSEKMSMEDENFRKRKLPVVSSVVKVKKFNHDGEEEEEDDDYGSRTGSISSSVSVPAKPERRPSLPPSKQANKNLILKAISEAQESVTKTTNYSTVPQKQTLPVAPRTRTSQEELLAEVVQGQSRTPRISPPIKEEETKGDSVEKNQGTQQRQLLSRLQIDPVMAETLQMSQDYYDMESMVHADTRSFILKKPKLSEEVVVAPNQESGMKTADSLRVLSGHLMQTRDLVQPDKPASPKFIVTLDGVPSPPGYMSDQEEDMCFEGMKPVNQTAASNKGLRGLLHPQQLHLLSRQLEDPNGSFSNAEMSELSVAQKPEKLLERCKYWPACKNGDECAYHHPISPCKAFPNCKFAEKCLFVHPNCKYDAKCTKPDCPFTHVSRRIPVLSPKPAVAPPAPPSSSQLCRYFPACKKMECPFYHPKHCRFNTQCTRPDCTFYHPTINVPPRHALKWIRPQTSE [ZC3H14]
HeLa Kyoto [1]; cell cycle stage: G1/S
  melting temperature: 49.7 °C
HeLa Kyoto [1]; cell cycle stage: mitosis
  melting temperature: 51.2 °C
HeLa Kyoto [2]; [5]
  thermal stability score: -0.823
HeLa Kyoto [2]; cell cycle stage: mitosis
  thermal stability score: 0.321
HeLa Kyoto [3]
  solubility in G1/S (log2): -0.475
HeLa Kyoto [4]
  solubility change mitosis (log2): 0.656

## MGQTVNEDSMDVKKENQEKTPQSSTSSVQRDDFHWEEYLKETGSISAPSECFRQSQIPPVNDFKVGMKLEARDPRNATSVCIATVIGITGARLRLRLDGSDNRNDFWRLVDSPDIQPVGTCEKEGDLLQPPLGYQMNTSSWPMFLLKTLNGSEMASATLFKKEPPKPPLNNFKVGMKLEAIDKKNPYLICPATIGDVKGDEVHITFDGWSGAFDYWCKYDSRDIFPAGWCRLTGDVLQPPGTSVPIVKNIAKTESSPSEASQHSMQSPQKTTLILPTQQVRRSSRIKPPGPTAVPKRSSSVKNITPRKKGPNSGKKEKPLPVICSTSAASLKSLTRDRGMLYKDVASGPCKIVMSTVCVYVNKHGNFGPHLDPKRIQQLPDHFGPGPVNVVLRRIVQACVDCALETKTVFGYLKPDNRGGEVITASFDGETHSIQLPPVNSASFALRFLENFCHSLQCDNLLSSQPFSSSRGHTHSSAEHDKNQSAKEDVTERQSTKRSPQQTVPYVVPLSPKLPKTKEYASEGEPLFAGGSAIPKEENLSEDSKSSSLNSGNYLNPACRNPMYIHTSVSQDFSRSVPGTTSSPLVGDISPKSSPHEVKFQMQRKSEAPSYIAVPDPSVLKQGFSKDPSTWSVDEVIQFMKHTDPQISGPLADLFRQHEIDGKALFLLKSDVMMKYMGLKLGPALKLCYYIEKLKEGKYS [SCML2]
HeLa Kyoto [1]; cell cycle stage: G1/S
  melting temperature: 44.9 °C
HeLa Kyoto [1]; cell cycle stage: mitosis
  melting temperature: 49.1 °C
HeLa Kyoto [2]; [5]
  thermal stability score: 4.21
HeLa Kyoto [2]; cell cycle stage: mitosis
  thermal stability score: 8.66
HeLa Kyoto [3]
  solubility in G1/S (log2): -0.0128
HeLa Kyoto [4]
  solubility change mitosis (log2): 0.137

## MADTQYILPNDIGVSSLDCREAFRLLSPTERLYAYHLSRAAWYGGLAVLLQTSPEAPYIYALLSRLFRAQDPDQLRQHALAEGLTEEEYQAFLVYAAGVYSNMGNYKSFGDTKFVPNLPKEKLERVILGSEAAQQHPEEVRGLWQTCGELMFSLEPRLRHLGLGKEGITTYFSGNCTMEDAKLAQDFLDSQNLSAYNTRLFKEVDGEGKPYYEVRLASVLGSEPSLDSEVTSKLKSYEFRGSPFQVTRGDYAPILQKVVEQLEKAKAYAANSHQGQMLAQYIESFTQGSIEAHKRGSRFWIQDKGPIVESYIGFIESYRDPFGSRGEFEGFVAVVNKAMSAKFERLVASAEQLLKELPWPPTFEKDKFLTPDFTSLDVLTFAGSGIPAGINIPNYDDLRQTEGFKNVSLGNVLAVAYATQREKLTFLEEDDKDLYILWKGPSFDVQVGLHELLGHGSGKLFVQDEKGAFNFDQETVINPETGEQIQSWYRSGETWDSKFSTIASSYEECRAESVGLYLCLHPQVLEIFGFEGADAEDVIYVNWLNMVRAGLLALEFYTPEAFNWRQAHMQARFVILRVLLEAGEGLVTITPTTGSDGRPDARVRLDRSKIRSVGKPALERFLRRLQVLKSTGDVAGGRALYEGYATVTDAPPECFLTLRDTVLLRKESRKLIVQPNTRLEGSDVQLLEYEASAAGLIRSFSERFPEDGPELEEILTQLATADARFWKGPSEAPSGQA [DPP3]
HeLa Kyoto [1]; cell cycle stage: G1/S
  melting temperature: 53.8 °C
HeLa Kyoto [1]; cell cycle stage: mitosis
  melting temperature: 53 °C
HeLa Kyoto [2]; [5]
  thermal stability score: -0.363
HeLa Kyoto [2]; cell cycle stage: mitosis
  thermal stability score: -1.69
HeLa Kyoto [3]
  solubility in G1/S (log2): 0.153
HeLa Kyoto [4]
  solubility change mitosis (log2): -0.14

## MVLSELAARLNCAEYKNWVKAGHCLLLLRSCLQGFVGREVLSFHRGLLAAAPGLGPRAVCRGGSRCSPRARQFQPQCQVCAEWKREILRHHVNRNGDVHWGNCRPGRWPVDAWEVAKAFMPRGLADKQGPEECDAVALLSLINSCDHFVVDRKKVTEVIKCRNEIMHSSEMKVSSTWLRDFQMKIQNFLNEFKNIPEIVAVYSRIEQLLTSDWAVHIPEEDQRDGCECEMGTYLSESQVNEIEMQLLKEKLQEIYLQAEEQEVLPEELSNRLEVVKEFLRNNEDLRNGLTEDMQKLDSLCLHQKLDSQEPGRQTPDRKA [CXORF38]
HeLa Kyoto [1]; cell cycle stage: G1/S
  melting temperature: 52.5 °C
HeLa Kyoto [1]; cell cycle stage: mitosis
  melting temperature: 52.1 °C
HeLa Kyoto [2]; [5]
  thermal stability score: -0.304
HeLa Kyoto [2]; cell cycle stage: mitosis
  thermal stability score: 2.18
HeLa Kyoto [3]
  solubility in G1/S (log2): 0.0857
HeLa Kyoto [4]
  solubility change mitosis (log2): -0.0263

## NUP188
HeLa Kyoto [1]; cell cycle stage: G1/S
  melting temperature: 51 °C
HeLa Kyoto [1]; cell cycle stage: mitosis
  melting temperature: 49 °C
HeLa Kyoto [2]; [5]
  thermal stability score: -2.04
HeLa Kyoto [2]; cell cycle stage: mitosis
  thermal stability score: -2.93
HeLa Kyoto [3]
  solubility in G1/S (log2): -0.299
HeLa Kyoto [4]
  solubility change mitosis (log2): -0.108

## MSEVTKNSLEKILPQLKCHFTWNLFKEDSVSRDLEDRVCNQIEFLNTEFKATMYNLLAYIKHLDGNNEAALECLRQAEELIQQEHADQAEIRSLVTWGNYAWVYYHLGRLSDAQIYVDKVKQTCKKFSNPYSIEYSELDCEEGWTQLKCGRNERAKVCFEKALEEKPNNPEFSSGLAIAMYHLDNHPEKQFSTDVLKQAIELSPDNQYVKVLLGLKLQKMNKEAEGEQFVEEALEKSPCQTDVLRSAAKFYRRKGDLDKAIELFQRVLESTPNNGYLYHQIGCCYKAKVRQMQNTGESEASGNKEMIEALKQYAMDYSNKALEKGLNPLNAYSDLAEFLETECYQTPFNKEVPDAEKQQSHQRYCNLQKYNGKSEDTAVQHGLEGLSISKKSTDKEEIKDQPQNVSENLLPQNAPNYWYLQGLIHKQNGDLLQAAKCYEKELGRLLRDAPSGIGSIFLSASELEDGSEEMGQGAVSSSPRELLSNSEQLN [IFIT3]
HeLa Kyoto [1]; cell cycle stage: G1/S
  melting temperature: 48.2 °C
HeLa Kyoto [1]; cell cycle stage: mitosis
  melting temperature: 49 °C
HeLa Kyoto [2]; [5]
  thermal stability score: -0.282
HeLa Kyoto [2]; cell cycle stage: mitosis
  thermal stability score: 1.1
HeLa Kyoto [3]
  solubility in G1/S (log2): 0.357
HeLa Kyoto [4]
  solubility change mitosis (log2): -0.0471

## MTLEAIRYSRGSLQILDQLLLPKQSRYEAVGSVHQAWEAIRAMKVRGAPAIALVGCLSLAVELQAGAGGPGLAALVAFVRDKLSFLVTARPTAVNMARAARDLADVAAREAEREGATEEAVRERVICCTEDMLEKDLRDNRSIGDLGARHLLERVAPSGGKVTVLTHCNTGALATAGYGTALGVIRSLHSLGRLEHAFCTETRPYNQGARLTAFELVYEQIPATLITDSMVAAAMAHRGVSAVVVGADRVVANGDTANKVGTYQLAIVAKHHGIPFYVAAPSSSCDLRLETGKEIIIEERPGQELTDVNGVRIAAPGIGVWNPAFDVTPHDLITGGIITELGVFAPEELRTALTTTISSRDGTLDGPQM [MRI1]
HeLa Kyoto [1]; cell cycle stage: G1/S
  melting temperature: 52.5 °C
HeLa Kyoto [1]; cell cycle stage: mitosis
  melting temperature: 52.4 °C
HeLa Kyoto [2]; [5]
  thermal stability score: -0.841
HeLa Kyoto [2]; cell cycle stage: mitosis
  thermal stability score: -0.966
HeLa Kyoto [3]
  solubility in G1/S (log2): 0.21
HeLa Kyoto [4]
  solubility change mitosis (log2): -0.154

## MDPGDDWLVESLRLYQDFYAFDLSGATRVLEWIDDKGVFVAGYESLKKNEILHLKLPLRLSVKENKGLFPERDFKVRHGGFSDRSIFDLKHVPHTRLLVTSGLPGCYLQVWQVAEDSDVIKAVSTIAVHEKEESLWPRVAVFSTLAPGVLHGARLRSLQVVDLESRKTTYTSDVSDSEELSSLQVLDADTFAFCCASGRLGLVDTRQKWAPLENRSPGPGSGGERWCAEVGSWGQGPGPSIASLGSDGRLCLLDPRDLCHPVSSVQCPVSVPSPDPELLRVTWAPGLKNCLAISGFDGTVQVYDATSWDGTRSQDGTRSQVEPLFTHRGHIFLDGNGMDPAPLVTTHTWHPCRPRTLLSATNDASLHVWDWVDLCAPR [WDR73]
HeLa Kyoto [1]; cell cycle stage: G1/S
  melting temperature: 54.8 °C
HeLa Kyoto [1]; cell cycle stage: mitosis
  melting temperature: 54 °C
HeLa Kyoto [2]; [5]
  thermal stability score: 0.072
HeLa Kyoto [2]; cell cycle stage: mitosis
  thermal stability score: 0.551
HeLa Kyoto [3]
  solubility in G1/S (log2): -0.0335
HeLa Kyoto [4]
  solubility change mitosis (log2): -0.0847

## MPLPVALQTRLAKRGILKHLEPEPEEEIIAEDYDDDPVDYEATRLEGLPPSWYKVFDPSCGLPYYWNADTDLVSWLSPHDPNSVVTKSAKKLRSSNADAEEKLDRSHDKSDRGHDKSDRSHEKLDRGHDKSDRGHDKSDRDRERGYDKVDRERERDRERDRDRGYDKADREEGKERRHHRREELAPYPKSKKAVSRKDEELDPMDPSSYSDAPRGTWSTGLPKRNEAKTGADTTAAGPLFQQRPYPSPGAVLRANAEASRTKQQD [PQBP1]
HeLa Kyoto [1]; cell cycle stage: G1/S
  melting temperature: 58.2 °C
HeLa Kyoto [1]; cell cycle stage: mitosis
  melting temperature: 54.6 °C
HeLa Kyoto [2]; [5]
  thermal stability score: -3.93
HeLa Kyoto [2]; cell cycle stage: mitosis
  thermal stability score: -4.26
HeLa Kyoto [3]
  solubility in G1/S (log2): 0.0148
HeLa Kyoto [4]
  solubility change mitosis (log2): 0.599
